Source: US10143747B2, “Breast cancer therapeutics” (IMBA—INSTITUT FÜR MOLEKULARE BIOTECHNOLOGIE GMBH, priority 2010, dated 2018)

Tested on: human SKBR3 breast cancer cells
Assay: Soft-Agar Colony Formation Assay (anchorage-independent growth)
Format: cell-based
Conditions: OPG 1 μg/ml with RANKL 1 μg/ml, 18 days in culture
Description: a, Western blotting for phosphorylated (P) IKKα, total IKKα, phosphorylated (P) p65 NFκB, total p65 NFκB, phosphorylated (P) IκBα, and total IκBα in isolated primary mouse mammary gland epithelial cells (MECs) in response to RANKL stimulation (1 μg/ml). β-actin is shown as loading control. b, Western blotting for IKKα, IKKβ, IKKγ, phosphorylated (P) p65 NFκB, total p65 NFκB, phosphorylated (P) IκBα, and total IκBα in pooled late stage mammary adenocarconimas (n=4 for each lane) that developed in control, RANK^Δmam and IKKΔ^Δmam females. β-actin is shown as loading control c, Expression of RANK, CyclinD1, and p21 mRNA in late stage mammary adenocacinomas that developed in control, RANK^Δmam, and IKKα^Δmam females. Expression was determined by qRT-PCR. Data are mean values+/−sem. n=4 per group. d, Soft-Agar Colony Formation Assay. Growth of human SKBR3 breast cancer cells in soft agar in response to stimulation with RANKL (1 μg/ml) or EGF (100 ng/ml). Anchorage-independent, macroscopic colonies formed after 18 days in culture with RANKL, which was prevented by the decoy receptor OPG (1 μg/ml). […] Apoptosis was detected by immunostaining for active Caspase 3. f, Apoptotic nuclei of epithelial cells (arrows) are shown for representative mammary gland sections. Magnifications×40. g, Quantification of mammary epithelial apoptosis. A minimum of 5000 nuclei was counted for each mouse. […]

B1: OPG: secreted decoy receptor of RANKL, used as RANKL inhibitor (1 μg/ml) (protein, UniProt O00300 22-401, looked up)
Tumor necrosis factor …: ETFPPKYLHYDEETSHQLLCDKCPPGTYLKQHCTAKWKTVCAPCPDHYYTDSWHTSDECLYCSPVCKELQYVKQECNRTHNRVCECKEGRYLEIEFCLKHRSCPPGFGVVQAGTPERNTVCKRCPDGFFSNETSSKAPCRKHTNCSVFGLLLTQKGNATHDNICSGNSESTQKCGIDVTLCEEAFFRFAVPTKFTPNWLSVLVDNLPGTKVNAESVERIKRQHSSQEQTFQLLKLWKHQNKDQDIVKKIIQDIDLCENSVQRHIGHANLTFEQLRSLMESLPGKKVGAEDIEKTIKACKPSDQILKLLSLWRIKNGDQDTLKGLMHALKHSKTYHFPKTVTQSLKKTIRFLHSFTMYKLYQKLFLEMIGNQVQSVKISCL
- effect on RANKL-induced anchorage-independent macroscopic colonies: prevented
